The text below walks through data of publication PMC4600761.

Assay [1] deals with Syx-mtq (mTurquoise fused to the C terminus of syntaxin1A) (rat) (UniProt P32851). The assay is described as follows: FRET or BRET; two-photon FLIM, time-lapse (18 s accumulation); rat cortical neurons in dissociated culture during 300 mM sucrose stimulation; A1 from decay curve fitting or from average lifetime (τ1 0.5 ns assumed). On the technique in general: In BRET a luciferase serves as donor, and the signal depends on an acceptor being close.

For assay [2], the target named is Syx-mtq2 (mTurquoise2 fused to the C terminus of syntaxin1A) (rat) (UniProt P32851). Briefly: FRET or BRET; two-photon FLIM, A1 fraction; Schaffer collateral boutons in rat hippocampal slice culture, probes by AAV1, during 300 mM sucrose stimulation.
Assay [3] has as its target Syx-mtq (mTurquoise fused to the C terminus of syntaxin1A) (rat) (UniProt P32851). Briefly: FRET or BRET; two-photon FLIM of the mtq donor; fast decay component (A1 fraction) taken as the binding fraction of the donor; live rat cortical neurons in dissociated culture, lipofected, resting; boutons and axons.
Assay [4] addresses Syx-mtq2 (mTurquoise2 fused to the C terminus of syntaxin1A) (rat) (UniProt P32851). The assay is described as follows: FRET or BRET; two-photon FLIM, A1 fraction; Schaffer collateral boutons and axons in the CA1 region of rat hippocampal slice culture, probes by AAV1, resting.
For assay [5], the target named is mtq-SNAP25b (mTurquoise fused to the N terminus of synaptosomal-associated protein 25b) (mouse) (UniProt P60879). Briefly: FRET or BRET; two-photon FLIM, time-lapse (1.8 s), A1 from average lifetime (τ1 0.5 ns assumed); β cells in mouse islets stimulated with 16 mM glucose, region of 0.5 μm diameter around single exocytotic events.
Assay [6] shares this target. The assay is described as follows: FRET or BRET; two-photon FLIM, A1 fraction; plasma membrane of β cells in mouse islets of Langerhans, probes by lentivirus, resting state.
Assay [7] addresses mtq-Syx (mTurquoise fused to the N terminus of syntaxin1A) (rat) (UniProt P32851). Described as above.
Assay [8] addresses mtq-SNAP25b (mTurquoise fused to the N terminus of synaptosomal-associated protein 25b) (mouse) (UniProt P60879). The assay is described as follows: FRET or BRET.
The target in assay [9] is mtq-Syx (mTurquoise fused to the N terminus of syntaxin1A) (rat) (UniProt P32851). Briefly: FRET or BRET.
The target is the same in assay [10]. The assay is described as follows: FRET or BRET; two-photon FLIM, A1 fraction; rat cortical neurons in dissociated culture after chemical fixation and counterstaining with anti-synaptophysin antibody.
Assay [11] addresses mtq-SNAP25b (mTurquoise fused to the N terminus of synaptosomal-associated protein 25b) (mouse) (UniProt P60879). The assay is described as follows: FRET or BRET; two-photon FLIM of the mtq donor; fast decay component (A1 fraction) taken as the binding fraction of the donor; live rat cortical neurons in dissociated culture, lipofected, resting; boutons and axons.
In assay [12] the target is mtq-Syx (mTurquoise fused to the N terminus of syntaxin1A) (rat) (UniProt P32851). The assay is described as above.
In assay [13] the target is mtq2-Syx (mTurquoise2 fused to the N terminus of syntaxin1A) (rat) (UniProt P32851). Briefly: FRET or BRET; two-photon FLIM, A1 fraction; Schaffer collateral boutons and axons in the CA1 region of rat hippocampal slice culture, probes by AAV1, resting.
mtq2-Syx (mTurquoise2 fused to the N terminus of syntaxin1A) (rat), sequence (P32851 whole entry, the tested form may be a part): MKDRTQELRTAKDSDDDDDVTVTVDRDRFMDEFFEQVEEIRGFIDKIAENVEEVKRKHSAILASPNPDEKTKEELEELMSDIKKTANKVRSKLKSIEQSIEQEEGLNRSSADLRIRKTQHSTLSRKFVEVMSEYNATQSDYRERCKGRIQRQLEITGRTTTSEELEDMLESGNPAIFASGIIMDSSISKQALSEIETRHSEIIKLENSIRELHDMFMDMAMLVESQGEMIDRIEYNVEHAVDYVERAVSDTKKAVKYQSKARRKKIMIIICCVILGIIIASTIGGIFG

Syx-mtq (mTurquoise fused to the C terminus of syntaxin1A) (rat), sequence (P32851 whole entry, the tested form may be a part): as above
mtq-Syx (mTurquoise fused to the N terminus of syntaxin1A) (rat), sequence (P32851 whole entry, the tested form may be a part): as above
mtq-SNAP25b (mTurquoise fused to the N terminus of synaptosomal-associated protein 25b) (mouse), sequence (P60879 whole entry, the tested form may be a part): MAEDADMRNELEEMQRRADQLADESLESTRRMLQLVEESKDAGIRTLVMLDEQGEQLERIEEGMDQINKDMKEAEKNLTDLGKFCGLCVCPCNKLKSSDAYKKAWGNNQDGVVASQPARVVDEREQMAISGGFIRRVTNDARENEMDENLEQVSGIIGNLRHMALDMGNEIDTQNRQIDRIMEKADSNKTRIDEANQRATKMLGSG
Syx-mtq2 (mTurquoise2 fused to the C terminus of syntaxin1A) (rat), sequence (P32851 whole entry, the tested form may be a part): as the sequence (P32851 whole entry, the tested form may be a part) above

Turning to “VAMP2-Ven (Venus fused to the C terminus of VAMP2) (from UniProt P63045 1-116) (natural protein)”, in assay [1], the increase in the A1 fraction in boutons on 300 mM sucrose (average lifetime) came out at 12.9% and the increase in the A1 fraction in boutons on 300 mM sucrose (decay curve fitting) was 11.8%. This substance had an A1 fraction (FRET of cis-complexes), boutons, during sucrose stimulation in assay [2] of 13.6%. In [3], this substance came in with an A1 fraction (binding fraction, cis-complex), axons of 21.5% and an A1 fraction (binding fraction, cis-complex), boutons of 24.7%. In assay [4], this substance had an A1 fraction (FRET of cis-complexes), boutons, resting state of 3.7%.

As to “Ven-VAMP2 (Venus fused to the N terminus of vesicle-associated membrane protein 2) (from UniProt P63045 1-116) (natural protein)”, the peak A1 fraction (binding fraction) before single exocytotic events, averaged traces of 61 events, 16 mM glucose in assay [5] turned out to be 8.3%. In [6], this substance came in with an A1 fraction (binding fraction), plasma membrane of resting β cells of less than 2%. Also, the A1 fraction (binding fraction), plasma membrane of resting β cells in [7] is less than 2%. In [8], the other was found to be 14.5%. The same substance registered an other in assay [9] of 16.3%. In assay [10], the A1 fraction (binding fraction), boutons, after fixation was 33.2%; the A1 fraction (binding fraction), pixels in axons turned out to be 15.6%; the A1 fraction (binding fraction), pixels of boutons negative for synaptophysin came out at 17.4%; the A1 fraction (binding fraction), pixels of boutons positive for synaptophysin was determined as 38.8%. Moreover, in assay [11], the A1 fraction (binding fraction), axons was 22.7% and the A1 fraction (binding fraction), boutons was 36.7%. In assay [12], the A1 fraction (binding fraction), axons worked out at 22.4%; the A1 fraction (binding fraction), boutons, live amounted to 34.1%; the trans-SNARE fraction in each bouton (A1b−A1a) was 11.6%. In [13], this substance returned a mean trans-SNARE fraction in boutons (A1b−A1a) of 11.9% and a trans-SNARE fraction in the active zone (A1s–A1a), spines with volumes >0.25 of 27.7%.
